In publication PMC4326527 one finds other: UAF1-mRFP N/C localization (% of cells), nuclear/cytoplasmic (N/C) class data, which are given here for one substance.

The experiment concerns the target UAF1-mRFP (UniProt Q8TAF3). Description: nuclear relocation assay. The note with it: 293T cells co-transfected with UAF1-mRFP; at least 100 cells per slide; three independent experiments; parent: est. 10; read off a plot.
Sequence of UniProt Q8TAF3 (Q8TAF3 whole entry): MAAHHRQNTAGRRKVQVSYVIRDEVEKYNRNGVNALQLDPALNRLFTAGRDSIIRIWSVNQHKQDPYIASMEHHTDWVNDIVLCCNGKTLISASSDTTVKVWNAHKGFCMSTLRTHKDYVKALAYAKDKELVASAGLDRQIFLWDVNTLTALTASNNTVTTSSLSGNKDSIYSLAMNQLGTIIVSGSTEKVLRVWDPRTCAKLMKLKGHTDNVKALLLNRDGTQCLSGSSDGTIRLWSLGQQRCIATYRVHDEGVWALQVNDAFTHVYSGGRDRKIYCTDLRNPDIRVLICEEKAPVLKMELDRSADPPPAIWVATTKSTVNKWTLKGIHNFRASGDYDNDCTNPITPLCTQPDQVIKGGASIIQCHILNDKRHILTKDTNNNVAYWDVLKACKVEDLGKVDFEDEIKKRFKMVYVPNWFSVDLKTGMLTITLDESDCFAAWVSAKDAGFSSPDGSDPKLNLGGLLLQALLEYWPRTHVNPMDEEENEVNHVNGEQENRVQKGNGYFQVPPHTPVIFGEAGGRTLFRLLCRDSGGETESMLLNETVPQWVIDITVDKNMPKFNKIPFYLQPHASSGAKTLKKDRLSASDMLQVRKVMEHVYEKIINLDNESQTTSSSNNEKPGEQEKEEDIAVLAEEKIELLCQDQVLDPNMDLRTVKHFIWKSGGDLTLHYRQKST

On to YFP-USP1(del420-520) S313D, for which the other: UAF1-mRFP N/C localization (% of cells), nuclear/cytoplasmic (N/C) class is 12 % of cells.
